T1: IDE (Rattus norvegicus, UniProt P35559)
T1 construct: hexahistidine (N); made in house; host or cells: Sf9 insect cells (baculovirus, pFastBac HTb)
T1 sequence (P35559 41-1019): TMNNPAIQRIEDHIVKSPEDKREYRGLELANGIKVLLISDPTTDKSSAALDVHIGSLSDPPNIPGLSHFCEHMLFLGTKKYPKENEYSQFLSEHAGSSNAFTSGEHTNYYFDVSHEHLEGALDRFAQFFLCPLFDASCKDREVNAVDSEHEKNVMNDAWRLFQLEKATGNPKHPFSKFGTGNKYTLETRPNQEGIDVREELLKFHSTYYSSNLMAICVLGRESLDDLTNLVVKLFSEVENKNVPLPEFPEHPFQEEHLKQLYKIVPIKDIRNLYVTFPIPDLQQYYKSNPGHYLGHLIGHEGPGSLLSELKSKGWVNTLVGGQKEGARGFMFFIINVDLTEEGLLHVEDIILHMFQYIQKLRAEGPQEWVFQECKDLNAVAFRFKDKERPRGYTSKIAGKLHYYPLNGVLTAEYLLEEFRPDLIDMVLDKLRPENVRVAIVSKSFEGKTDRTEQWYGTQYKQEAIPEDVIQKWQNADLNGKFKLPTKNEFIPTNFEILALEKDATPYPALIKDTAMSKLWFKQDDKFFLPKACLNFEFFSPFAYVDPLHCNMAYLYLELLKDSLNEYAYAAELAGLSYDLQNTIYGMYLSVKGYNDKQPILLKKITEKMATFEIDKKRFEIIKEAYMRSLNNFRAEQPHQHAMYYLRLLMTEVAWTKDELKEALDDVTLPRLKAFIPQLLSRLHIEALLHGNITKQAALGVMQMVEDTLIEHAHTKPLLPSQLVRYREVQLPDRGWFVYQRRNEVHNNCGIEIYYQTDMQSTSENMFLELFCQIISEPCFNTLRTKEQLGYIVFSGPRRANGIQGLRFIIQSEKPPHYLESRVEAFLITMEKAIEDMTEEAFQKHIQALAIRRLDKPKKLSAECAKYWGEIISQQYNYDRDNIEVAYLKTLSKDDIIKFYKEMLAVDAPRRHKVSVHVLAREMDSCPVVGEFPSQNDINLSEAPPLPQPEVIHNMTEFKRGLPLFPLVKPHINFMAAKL

B1: IDE^K898A,K899A,S901A: Rat IDE residues 41-1019 bearing the mutations K898A, K899A, S901A; ATP binding site mutant (protein, listed as Rattus norvegicus)
chain: MRNGLVWLLHPALPSTLHSILGARPPPVKRLCGFPKQIYSTMNNPAIQRIEDHIVKSPEDKREYRGLELANGIKVLLISDPTTDKSSAALDVHIGSLSDPPNIPGLSHFCEHMLFLGTKKYPKENEYSQFLSEHAGSSNAFTSGEHTNYYFDVSHEHLEGALDRFAQFFLCPLFDASCKDREVNAVDSEHEKNVMNDAWRLFQLEKATGNPKHPFSKFGTGNKYTLETRPNQEGIDVREELLKFHSTYYSSNLMAICVLGRESLDDLTNLVVKLFSEVENKNVPLPEFPEHPFQEEHLKQLYKIVPIKDIRNLYVTFPIPDLQQYYKSNPGHYLGHLIGHEGPGSLLSELKSKGWVNTLVGGQKEGARGFMFFIINVDLTEEGLLHVEDIILHMFQYIQKLRAEGPQEWVFQECKDLNAVAFRFKDKERPRGYTSKIAGKLHYYPLNGVLTAEYLLEEFRPDLIDMVLDKLRPENVRVAIVSKSFEGKTDRTEQWYGTQYKQEAIPEDVIQKWQNADLNGKFKLPTKNEFIPTNFEILALEKDATPYPALIKDTAMSKLWFKQDDKFFLPKACLNFEFFSPFAYVDPLHCNMAYLYLELLKDSLNEYAYAAELAGLSYDLQNTIYGMYLSVKGYNDKQPILLKKITEKMATFEIDKKRFEIIKEAYMRSLNNFRAEQPHQHAMYYLRLLMTEVAWTKDELKEALDDVTLPRLKAFIPQLLSRLHIEALLHGNITKQAALGVMQMVEDTLIEHAHTKPLLPSQLVRYREVQLPDRGWFVYQRRNEVHNNCGIEIYYQTDMQSTSENMFLELFCQIISEPCFNTLRTKEQLGYIVFSGPRRANGIQGLRFIIQSEKPPHYLESRVEAFLITMEKAIEDMTEEAFQKHIQALAIRRLDKPAALAAECAKYWGEIISQQYNYDRDNIEVAYLKTLSKDDIIKFYKEMLAVDAPRRHKVSVHVLAREMDSCPVVGEFPSQNDINLSEAPPLPQPEVIHNMTEFKRGLPLFPLVKPHINFMAAKL
modifications: wild-type Insulin Degrading Enzyme (IDE) from rat

Experiments:
[1] = molecular target: T1, IDE; test: γ-methylene-ATP versus ATP activation of IDE-dependent hydrolysis of Abz-[…]-EDDnp; type: biochemical; conditions: 10 μM substrate, compared with ATP
Procedure: Activity was determined in 50 mM Tris-HCl, pH 7.4 with 10 μM Abz-[…]-EDDnp (SEQ ID NO:3) as substrate and indicated concentrations of ATP or γ-methylene-ATP. Reactions contained 0.1 μg of protein.
(§1) IDE activity was determined by measuring the increase in fluorescence that occurs when the enzyme cleaves the internally quenched fluorogenic substrate Abz-[…]-EDDnp (SEQ ID NO:3) at the R—K bond (Song et al., Journal of Biologial Chemistry 276, 1152-1155 (2001)). The reaction was followed on a SpectraMax Gemini XS fluorescence plate reader using an excitation and emission wavelengths of 318 nm and 419 nm, respectively. Initial velocities were determined using SoftMax Pro 4.0 and kinetic constants calculated using GraphPad Prism 4.0. ATPase activity was measured by following Pi release with acid-molybdate as described by Harder et al. (Harder et al., Biochemical Journal 298 (Pt 2), 395-401 (1994)).

[2] = system: Abz-GGFLRKHGQ-EDDnp; test: Enzyme activity assay, kinetics of IDE and ATP binding site mutants with fluorogenic substrate; type: biochemical; conditions: rat IDE, Abz-GGFLRKHGQ-EDDnp as substrate
Procedure: Reactions were conducted in 50 mM Tris-HCl, pH 7.4.
as §1

[3] = system: Abz-GGFLRKHGQ-EDDnp; test: Effect of bradykinin on Abz-[…]-EDDnp hydrolysis, IDE and ATP binding site mutants; type: biochemical; conditions: 10 μM substrate, bradykinin as activator
Procedure: Activity was determined in 50 mM Tris-HCl, pH 7.4 with 10 μM Abz-[…]-EDDnp (SEQ ID NO:3) as substrate and indicated concentrations of bradykinin. Reactions contained 0.5 μg of protein.
as §1

[4] = TNP-ATP fluorescence measurements, IDE and ATP binding site mutants; conditions: 1.5 μM enzyme, 10 μM TNP-ATP, λexc=403 nm
Procedure: Fluorescence emission spectra were recorded on a Perkin-Elmer LS 55 Luminescence spectrometer with 1.5 μM of IDE, IDE^R429S or IDE^K898A,K899A,S901A in 50 mM Tris-HCl, pH 7.4 with 10 μM TNP-ATP. Fluorescence spectra were recorded with a λexc=403 nm.
TNP-ATP [2′,3′-O-(2,4,6-Trinitrophenyl)adenosine-5′-triphosphate] fluorescence was monitored at excitation and emission wavelengths of 403 nm and 547 nm, respectively, using a Perkin-Elmer LS55 Luminescence Spectrometer at 20±0.1° C. TNP-ATP (Molecular Probes, Inc.) as supplied was diluted to 4 mM with 50 mM Tris-HCl, pH 7.4, and added to achieve the indicated concentrations.

[5] = system: Abz-GGFLRKHGQ-EDDnp; test: Activation by ATP of Abz-[…]-EDDnp hydrolysis, IDE and ATP binding site mutants; type: biochemical; conditions: 10 μM Abz-GGFLRKHGQ-EDDnp as substrate
Procedure: Activity was determined in 50 mM Tris-HCl, pH 7.4 with 10 μM Abz-[…]-EDDnp (SEQ ID NO:3) as substrate at the indicated concentrations of ATP (panel A), PPPi (panel B) or, TNP-ATP (panel C). Each reaction contained 0.5 μg of enzyme.
as §1

[6] = system: Saccharomyces cerevisiae; test: IDE activity assay in yeast, serial dilution mating test; type: cell-based; conditions: yeast assays
Procedure: Panel A depicts immunoblot of yeast-expressed IDE and IDE^K898A,K899A,S901A. Equivalent percentage amounts of total cellular extracts from yeast containing an empty expression vector or plasmids encoding IDE or the IDE^K898A,K899A,S901A mutant were analyzed by SDS-PAGE and immunoblotting using an IDE-specific antibody. […] An excess of MATa yeast were mixed with decreasing numbers of MATa cells deficient for Axl1p and Step 23p that were transformed with either an empty expression vector or a vector encoding IDE or IDE^K898A,K899A,S901A as indicated. Mating, which leads to colony growth, is dependent on production of mature a-factor pheromone by plasmid-encoded IDE. […] Concentrated samples of a-factor recovered from yeast bearing the indicated expression vector were spotted at the indicated dilutions on a lawn of RC757 MATa cells, which undergo growth arrest upon exposure to a-factor pheromone. […]
The assays take advantage of the ability of IDE, in lieu of the yeast M16 metallopeptidases Axl1p and Step 23p, to participate in the proteolytic maturation of yeast a-factor mating pheromone. […] Growth of diploid colonies, indicative of mating, was scored 3 days after incubation of plates at 30° C. […] Results of mating tests and halo assays were recorded by scanning plates with a Microtek flatbed scanner and importing digitized images into Photoshop and PowerPoint.

Row | Molecule | ability to activate Abz-GGFLRKHGQ-EDDnp hydrolysis by IDE [1] | Hill coefficient [2] | Km [2] [mM] | kcat [2] [s⁻¹] | Vmax ([2]; 50 mM Tris-HCl, pH 7.4) [nmol/min/mg] | rate of Abz-GGFLRKHGQ-EDDnp hydrolysis with bradykinin, relative to wild type IDE [3] | fluorescence associated with TNP-ATP binding, relative to wild type IDE [4] | level of activation by ATP, of the wild type value [5] | intracellular function relative to unmodified IDE [6]
1 | Nc1ncnc2c1ncn2[C@@H]1O[C@H](COP(=O)(O)OP(=O)(O)CP(=O)(O)O)[C@@H](O)[C@H]1O [γ-methylene ATP] | nearly as well as ATP |  |  |  |  |  |  |  | 
2 | B1 |  | 1.7 ± 0.1 | 17.3 ± 1 | 0.258 ± 0.01 | 140.8 ± 5.5 | significantly reduced | lower fluorescent yield | even less activation | reduced intracellular function
